# System: Escherichia coli TOP10
# Assay: shrunken log2 fold change of peptide-encoding DNA abundance (4.5 h post-induction vs induction); higher = less antimicrobial activity (less host growth inhibition)
# Details: time post-induction: 4.5 h; library: site-saturation at positions 5, 18, 19, 20
# 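Further: peptides expressed intracellularly from a pBAD plasmid library in pooled LB shake-flask culture, induced with 0.3% L-arabinose, DNA abundance read by NGS, three biological replicates, DESeq2 with apeglm shrinkage.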
row,Sequence,shrunken log2 fold change
1,RRIRERPPRLPRPRPRPQRTPRP,-0.233
2,RRIRERPPRLPRPRPRPQTGPRP,-0.0945
3,RRIRERPPRLPRPRPRPQVDPRP,-0.211
4,RRIRERPPRLPRPRPRPQVRPRP,-0.0385
5,RRIRERPPRLPRPRPRPQWEPRP,-0.0702
6,RRIRERPPRLPRPRPRPQWIPRP,-0.0767
7,RRIRERPPRLPRPRPRPQYGPRP,-0.0797
8,RRIRERPPRLPRPRPRPRASPRP,-0.0261
9,RRIRERPPRLPRPRPRPRAVPRP,0.264
10,RRIRERPPRLPRPRPRPRCNPRP,-0.122
11,RRIRERPPRLPRPRPRPRDMPRP,0.0375
12,RRIRERPPRLPRPRPRPRDTPRP,-0.0322
13,RRIRERPPRLPRPRPRPREDPRP,-0.0632
14,RRIRERPPRLPRPRPRPRFKPRP,0.00602
15,RRIRERPPRLPRPRPRPRGIPRP,-0.102
16,RRIRERPPRLPRPRPRPRGSPRP,0.147
17,RRIRERPPRLPRPRPRPRHTPRP,-0.187
18,RRIRERPPRLPRPRPRPRHYPRP,-0.462
19,RRIRERPPRLPRPRPRPRIFPRP,-0.0907
20,RRIRERPPRLPRPRPRPRPQPRP,0.61
21,RRIRERPPRLPRPRPRPRPTPRP,0.35
22,RRIRERPPRLPRPRPRPRQMPRP,-0.000582

row,Sequence,shrunken log2 fold change
1,RRIRERPPRLPRPRPRPRQSPRP,-0.0972
2,RRIRERPPRLPRPRPRPRSCPRP,0.0568
3,RRIRERPPRLPRPRPRPRSEPRP,-0.0574
4,RRIRERPPRLPRPRPRPRTSPRP,0.0838
5,RRIRERPPRLPRPRPRPRVEPRP,-0.182
6,RRIRERPPRLPRPRPRPSAHPRP,0.131
7,RRIRERPPRLPRPRPRPSAKPRP,0.0244
8,RRIRERPPRLPRPRPRPSARPRP,-0.192
9,RRIRERPPRLPRPRPRPSAVPRP,-0.411
10,RRIRERPPRLPRPRPRPSCMPRP,-0.416
11,RRIRERPPRLPRPRPRPSCTPRP,-0.815
12,RRIRERPPRLPRPRPRPSDIPRP,-0.0101
13,RRIRERPPRLPRPRPRPSDLPRP,-0.151
14,RRIRERPPRLPRPRPRPSEMPRP,-0.16
15,RRIRERPPRLPRPRPRPSEVPRP,-0.12
16,RRIRERPPRLPRPRPRPSFNPRP,-0.637
17,RRIRERPPRLPRPRPRPSGCPRP,0.0787
18,RRIRERPPRLPRPRPRPSGGPRP,-0.0233
19,RRIRERPPRLPRPRPRPSGLPRP,-0.195
20,RRIRERPPRLPRPRPRPSGPPRP,-0.203
21,RRIRERPPRLPRPRPRPSHQPRP,-0.19
22,RRIRERPPRLPRPRPRPSIHPRP,-0.147

row,Sequence,shrunken log2 fold change
1,RRIRERPPRLPRPRPRPSKCPRP,-0.488
2,RRIRERPPRLPRPRPRPSLNPRP,-0.181
3,RRIRERPPRLPRPRPRPSMAPRP,-0.192
4,RRIRERPPRLPRPRPRPSNSPRP,-0.0251
5,RRIRERPPRLPRPRPRPSPKPRP,0.0298
6,RRIRERPPRLPRPRPRPSQFPRP,-0.474
7,RRIRERPPRLPRPRPRPSQPPRP,0.0471
8,RRIRERPPRLPRPRPRPSRIPRP,-0.234
9,RRIRERPPRLPRPRPRPSSDPRP,-0.164
10,RRIRERPPRLPRPRPRPSSKPRP,-0.639
11,RRIRERPPRLPRPRPRPSSNPRP,-0.0512
12,RRIRERPPRLPRPRPRPSSRPRP,-0.107
13,RRIRERPPRLPRPRPRPSTDPRP,-0.332
14,RRIRERPPRLPRPRPRPSWLPRP,0.177
15,RRIRERPPRLPRPRPRPSWPPRP,-0.079
16,RRIRERPPRLPRPRPRPSYLPRP,-1.2
17,RRIRERPPRLPRPRPRPTACPRP,-0.134
18,RRIRERPPRLPRPRPRPTADPRP,0.0264
19,RRIRERPPRLPRPRPRPTAHPRP,0.0481
20,RRIRERPPRLPRPRPRPTATPRP,0.259
21,RRIRERPPRLPRPRPRPTCQPRP,0.00216
22,RRIRERPPRLPRPRPRPTDEPRP,-0.0552

row,Sequence,shrunken log2 fold change
1,RRIRERPPRLPRPRPRPTDIPRP,-0.0479
2,RRIRERPPRLPRPRPRPTEEPRP,0.00212
3,RRIRERPPRLPRPRPRPTFFPRP,0.321
4,RRIRERPPRLPRPRPRPTGEPRP,-0.0152
5,RRIRERPPRLPRPRPRPTGYPRP,-0.0056
6,RRIRERPPRLPRPRPRPTIEPRP,-0.0577
7,RRIRERPPRLPRPRPRPTILPRP,-0.0814
8,RRIRERPPRLPRPRPRPTKAPRP,0.043
9,RRIRERPPRLPRPRPRPTKEPRP,-0.465
10,RRIRERPPRLPRPRPRPTKVPRP,0.0356
11,RRIRERPPRLPRPRPRPTLNPRP,-0.152
12,RRIRERPPRLPRPRPRPTMPPRP,-0.124
13,RRIRERPPRLPRPRPRPTNEPRP,-0.676
14,RRIRERPPRLPRPRPRPTQWPRP,0.00138
15,RRIRERPPRLPRPRPRPTRAPRP,0.571
16,RRIRERPPRLPRPRPRPTRDPRP,0.245
17,RRIRERPPRLPRPRPRPTTDPRP,-0.148
18,RRIRERPPRLPRPRPRPTTIPRP,-0.627
19,RRIRERPPRLPRPRPRPTVNPRP,-0.129
20,RRIRERPPRLPRPRPRPTYPPRP,-1.11
21,RRIRERPPRLPRPRPRPTYYPRP,-0.614
22,RRIRERPPRLPRPRPRPVAGPRP,0.246

row,Sequence,shrunken log2 fold change
1,RRIRERPPRLPRPRPRPVAMPRP,-0.00351
2,RRIRERPPRLPRPRPRPVANPRP,-0.068
3,RRIRERPPRLPRPRPRPVARPRP,-0.168
4,RRIRERPPRLPRPRPRPVCCPRP,-0.163
5,RRIRERPPRLPRPRPRPVECPRP,-0.152
6,RRIRERPPRLPRPRPRPVEIPRP,-0.0716
7,RRIRERPPRLPRPRPRPVEVPRP,-0.209
8,RRIRERPPRLPRPRPRPVFPPRP,0.242
9,RRIRERPPRLPRPRPRPVFRPRP,-0.0125
10,RRIRERPPRLPRPRPRPVGFPRP,0.0681
11,RRIRERPPRLPRPRPRPVHDPRP,-0.687
12,RRIRERPPRLPRPRPRPVKYPRP,-0.0311
13,RRIRERPPRLPRPRPRPVMMPRP,-0.144
14,RRIRERPPRLPRPRPRPVNTPRP,-0.34
15,RRIRERPPRLPRPRPRPVPEPRP,-0.0948
16,RRIRERPPRLPRPRPRPVPWPRP,0.0881
17,RRIRERPPRLPRPRPRPVRHPRP,0.131
18,RRIRERPPRLPRPRPRPVRLPRP,0.0832
19,RRIRERPPRLPRPRPRPVRNPRP,-0.41
20,RRIRERPPRLPRPRPRPVSFPRP,-0.0647
21,RRIRERPPRLPRPRPRPVSKPRP,-0.201

# Reference: the supplement of paper PMC9112550, “Optimization of the antimicrobial peptide Bac7 by deep mutational scanning” (BMC Biology, 2022)
